For the data set, the system named is Escherichia coli TOP10. Briefly: shrunken log2 fold change of peptide-encoding DNA abundance (4.5 h post-induction vs induction); higher = less antimicrobial activity (less host growth inhibition). Conditions: time post-induction: 4.5 h; library: site-saturation at positions 5, 18, 19, 20.
For the sequence RRIRYRPPRLPRPRPRPPRCPRP, the “shrunken log2 fold change” value was -0.0545.

As for RRIRPRPPRLPRPRPRPHCCPRP, the “shrunken log2 fold change” value was -0.181.

Consider RRIRVRPPRLPRPRPRPTEWPRP, for which the “shrunken log2 fold change” value was determined as 0.322.

For RRIRNRPPRLPRPRPRPNKEPRP, the “shrunken log2 fold change” value is -0.0761.

In the case of RRIRQRPPRLPRPRPRPATVPRP, the “shrunken log2 fold change” value was 0.239.

Regarding RRIRDRPPRLPRPRPRPLYVPRP, the “shrunken log2 fold change” value was -0.17.

RRIRRRPPRLPRPRPRPPFLPRP: the “shrunken log2 fold change” value is 0.315.

On to RRIRPRPPRLPRPRPRPLRDPRP, for which the “shrunken log2 fold change” value turned out to be 0.522.

In the case of RRIRTRPPRLPRPRPRPWFPPRP, the “shrunken log2 fold change” value is -0.735.

With RRIRKRPPRLPRPRPRPHMNPRP, the “shrunken log2 fold change” value is -0.295.

Take RRIRYRPPRLPRPRPRPHHAPRP: the “shrunken log2 fold change” value is -0.00186.

For RRIRLRPPRLPRPRPRPCKNPRP, the “shrunken log2 fold change” value was -0.0458.

On to RRIRRRPPRLPRPRPRPDQRPRP, for which the “shrunken log2 fold change” value is -0.0913.

Regarding RRIRKRPPRLPRPRPRPHMVPRP, the “shrunken log2 fold change” value was -0.33.

Turning to RRIRGRPPRLPRPRPRPAMGPRP, the “shrunken log2 fold change” value was found to be 0.541.

In the case of RRIRRRPPRLPRPRPRPNTGPRP, the “shrunken log2 fold change” value is -0.121.

For RRIRQRPPRLPRPRPRPCHLPRP, the “shrunken log2 fold change” value was -0.0134.

Consider RRIRVRPPRLPRPRPRPASAPRP, for which the “shrunken log2 fold change” value came out at 0.309.

Take RRIRKRPPRLPRPRPRPINSPRP: the “shrunken log2 fold change” value was -0.395.

As to RRIRDRPPRLPRPRPRPKHSPRP, the “shrunken log2 fold change” value was -0.211.

Regarding RRIRWRPPRLPRPRPRPWWAPRP, the “shrunken log2 fold change” value is -0.194.

Turning to RRIRGRPPRLPRPRPRPCVGPRP, the “shrunken log2 fold change” value turned out to be 0.729.

RRIRLRPPRLPRPRPRPDAVPRP: the “shrunken log2 fold change” value was -0.199.

As to RRIRERPPRLPRPRPRPFHYPRP, the “shrunken log2 fold change” value was -0.416.

On to RRIRQRPPRLPRPRPRPSNFPRP, for which the “shrunken log2 fold change” value is -0.621.

On to RRIRRRPPRLPRPRPRPNHHPRP, for which the “shrunken log2 fold change” value is -0.25.

With RRIRGRPPRLPRPRPRPITEPRP, the “shrunken log2 fold change” value amounted to 0.000184.

Consider RRIRVRPPRLPRPRPRPIMSPRP, for which the “shrunken log2 fold change” value was -0.0851.

With RRIRDRPPRLPRPRPRPENLPRP, the “shrunken log2 fold change” value was found to be 0.0863.

For RRIRSRPPRLPRPRPRPLQPPRP, the “shrunken log2 fold change” value came out at 0.474.

Regarding RRIRVRPPRLPRPRPRPCYPPRP, the “shrunken log2 fold change” value is -0.327.

For the sequence RRIRNRPPRLPRPRPRPGQIPRP, the “shrunken log2 fold change” value turned out to be 0.0192.

For the sequence RRIRKRPPRLPRPRPRPLDDPRP, the “shrunken log2 fold change” value stood at 0.227.

For RRIRQRPPRLPRPRPRPKGHPRP, the “shrunken log2 fold change” value is -0.139.

In the case of RRIRDRPPRLPRPRPRPWSLPRP, the “shrunken log2 fold change” value stood at 0.0709.

On to RRIRRRPPRLPRPRPRPGDQPRP, for which the “shrunken log2 fold change” value came out at 0.272.

In the case of RRIRERPPRLPRPRPRPREHPRP, the “shrunken log2 fold change” value is -0.0329.

Consider RRIRSRPPRLPRPRPRPMWQPRP, for which the “shrunken log2 fold change” value is -0.175.

In the case of RRIRIRPPRLPRPRPRPIHYPRP, the “shrunken log2 fold change” value is -0.791.

On to RRIRYRPPRLPRPRPRPCYRPRP, for which the “shrunken log2 fold change” value is -0.172.

Regarding RRIRYRPPRLPRPRPRPTQYPRP, the “shrunken log2 fold change” value is -0.531.

As for RRIRQRPPRLPRPRPRPYHEPRP, the “shrunken log2 fold change” value was -0.288.

Take RRIRERPPRLPRPRPRPMPSPRP: the “shrunken log2 fold change” value was found to be 0.156.

On to RRIRTRPPRLPRPRPRPKYCPRP, for which the “shrunken log2 fold change” value was -0.0743.

For RRIRYRPPRLPRPRPRPIKSPRP, the “shrunken log2 fold change” value was -0.616.

Take RRIRMRPPRLPRPRPRPHIRPRP: the “shrunken log2 fold change” value was -0.0162.

Take RRIRGRPPRLPRPRPRPVPDPRP: the “shrunken log2 fold change” value stood at 0.958.

Consider RRIRGRPPRLPRPRPRPEMNPRP, for which the “shrunken log2 fold change” value is 0.999.

On to RRIRGRPPRLPRPRPRPCFRPRP, for which the “shrunken log2 fold change” value came out at 0.0644.

Take RRIRDRPPRLPRPRPRPHCEPRP: the “shrunken log2 fold change” value is -0.0477.

As to RRIRSRPPRLPRPRPRPKTFPRP, the “shrunken log2 fold change” value is -0.24.

On to RRIRPRPPRLPRPRPRPVGYPRP, for which the “shrunken log2 fold change” value worked out at 0.394.

Turning to RRIRVRPPRLPRPRPRPGRGPRP, the “shrunken log2 fold change” value is 0.632.

As to RRIRMRPPRLPRPRPRPQEKPRP, the “shrunken log2 fold change” value came to 0.01.

RRIRIRPPRLPRPRPRPCIPPRP: the “shrunken log2 fold change” value was -0.307.

For RRIRIRPPRLPRPRPRPMNTPRP, the “shrunken log2 fold change” value was -0.207.

On to RRIRGRPPRLPRPRPRPGVHPRP, for which the “shrunken log2 fold change” value is 0.597.

Consider RRIRMRPPRLPRPRPRPINTPRP, for which the “shrunken log2 fold change” value was -0.387.

As for RRIRGRPPRLPRPRPRPSEDPRP, the “shrunken log2 fold change” value was determined as 0.71.

On to RRIRRRPPRLPRPRPRPEQTPRP, for which the “shrunken log2 fold change” value was -0.01.

For RRIRMRPPRLPRPRPRPSPIPRP, the “shrunken log2 fold change” value is -0.106.

In the case of RRIRKRPPRLPRPRPRPPKCPRP, the “shrunken log2 fold change” value was 0.069.

As to RRIRYRPPRLPRPRPRPWWRPRP, the “shrunken log2 fold change” value was -0.0462.

As for RRIRVRPPRLPRPRPRPKSCPRP, the “shrunken log2 fold change” value was -0.113.

In the case of RRIRTRPPRLPRPRPRPTIYPRP, the “shrunken log2 fold change” value was -0.409.

As to RRIRIRPPRLPRPRPRPMLEPRP, the “shrunken log2 fold change” value came to 0.0741.

On to RRIRQRPPRLPRPRPRPGDSPRP, for which the “shrunken log2 fold change” value is -0.0573.

With RRIRVRPPRLPRPRPRPCHLPRP, the “shrunken log2 fold change” value is -0.00192.

For RRIRARPPRLPRPRPRPLKVPRP, the “shrunken log2 fold change” value was -0.0599.

Take RRIRTRPPRLPRPRPRPKPVPRP: the “shrunken log2 fold change” value was 0.217.

Consider RRIRFRPPRLPRPRPRPWFSPRP, for which the “shrunken log2 fold change” value is -0.0536.

As to RRIRLRPPRLPRPRPRPKKPPRP, the “shrunken log2 fold change” value amounted to 0.0873.

In the case of RRIRDRPPRLPRPRPRPEEHPRP, the “shrunken log2 fold change” value came to 0.937.

With RRIRERPPRLPRPRPRPIDVPRP, the “shrunken log2 fold change” value was -0.0231.

Turning to RRIRVRPPRLPRPRPRPTGKPRP, the “shrunken log2 fold change” value was -0.116.

In the case of RRIRCRPPRLPRPRPRPEYAPRP, the “shrunken log2 fold change” value worked out at 0.204.

Take RRIRVRPPRLPRPRPRPFPMPRP: the “shrunken log2 fold change” value is -0.35.

With RRIRQRPPRLPRPRPRPAKAPRP, the “shrunken log2 fold change” value was -0.101.

Regarding RRIRTRPPRLPRPRPRPWTEPRP, the “shrunken log2 fold change” value was 0.00497.

Regarding RRIRGRPPRLPRPRPRPGVFPRP, the “shrunken log2 fold change” value amounted to 0.465.

Regarding RRIRVRPPRLPRPRPRPFGYPRP, the “shrunken log2 fold change” value is -0.425.

Turning to RRIRGRPPRLPRPRPRPQAWPRP, the “shrunken log2 fold change” value came out at 0.69.

In the case of RRIRSRPPRLPRPRPRPDCPPRP, the “shrunken log2 fold change” value came out at 0.0922.

On to RRIRWRPPRLPRPRPRPYHDPRP, for which the “shrunken log2 fold change” value is -0.868.

As for RRIRARPPRLPRPRPRPRPSPRP, the “shrunken log2 fold change” value is 0.622.

On to RRIRARPPRLPRPRPRPASIPRP, for which the “shrunken log2 fold change” value is 0.0775.

Regarding RRIRFRPPRLPRPRPRPDSQPRP, the “shrunken log2 fold change” value was -0.271.

As to RRIRVRPPRLPRPRPRPKGGPRP, the “shrunken log2 fold change” value turned out to be 0.0495.

On to RRIRFRPPRLPRPRPRPRTQPRP, for which the “shrunken log2 fold change” value is 1.93.

In the case of RRIRKRPPRLPRPRPRPFQDPRP, the “shrunken log2 fold change” value stood at 0.118.

On to RRIRWRPPRLPRPRPRPPTAPRP, for which the “shrunken log2 fold change” value turned out to be 0.876.

Take RRIRFRPPRLPRPRPRPTLSPRP: the “shrunken log2 fold change” value turned out to be 0.0323.

Consider RRIRNRPPRLPRPRPRPSNVPRP, for which the “shrunken log2 fold change” value was -0.615.

For RRIRQRPPRLPRPRPRPEHKPRP, the “shrunken log2 fold change” value was -0.00178.

Take RRIRRRPPRLPRPRPRPSARPRP: the “shrunken log2 fold change” value was determined as 0.349.

For RRIRCRPPRLPRPRPRPMQEPRP, the “shrunken log2 fold change” value was -0.0194.

As for RRIRSRPPRLPRPRPRPFCQPRP, the “shrunken log2 fold change” value is -0.0847.

For RRIRDRPPRLPRPRPRPMNSPRP, the “shrunken log2 fold change” value is -0.0173.

On to RRIRHRPPRLPRPRPRPWDVPRP, for which the “shrunken log2 fold change” value is -0.0319.

In the case of RRIRQRPPRLPRPRPRPQMTPRP, the “shrunken log2 fold change” value is -0.106.

In the case of RRIRERPPRLPRPRPRPHSEPRP, the “shrunken log2 fold change” value is -0.148.

Consider RRIRVRPPRLPRPRPRPECRPRP, for which the “shrunken log2 fold change” value stood at 0.238.

As to RRIRKRPPRLPRPRPRPFLPPRP, the “shrunken log2 fold change” value was -0.0487.

As to RRIRARPPRLPRPRPRPGMQPRP, the “shrunken log2 fold change” value stood at 0.094.

In the case of RRIRIRPPRLPRPRPRPYISPRP, the “shrunken log2 fold change” value was -0.0173.

Consider RRIRGRPPRLPRPRPRPNWEPRP, for which the “shrunken log2 fold change” value was found to be 0.21.

As to RRIRYRPPRLPRPRPRPRKNPRP, the “shrunken log2 fold change” value was -0.268.

Consider RRIRVRPPRLPRPRPRPEQQPRP, for which the “shrunken log2 fold change” value is 0.0394.

With RRIRYRPPRLPRPRPRPLVMPRP, the “shrunken log2 fold change” value is -0.372.

Take RRIRFRPPRLPRPRPRPGVEPRP: the “shrunken log2 fold change” value was 0.112.

Regarding RRIRIRPPRLPRPRPRPYIWPRP, the “shrunken log2 fold change” value was -0.0625.

With RRIRFRPPRLPRPRPRPKGEPRP, the “shrunken log2 fold change” value turned out to be 0.35.

For RRIRQRPPRLPRPRPRPGWMPRP, the “shrunken log2 fold change” value was -0.115.

Consider RRIRIRPPRLPRPRPRPELVPRP, for which the “shrunken log2 fold change” value is -0.105.

RRIRNRPPRLPRPRPRPSDRPRP: the “shrunken log2 fold change” value is -0.0382.

Consider RRIRFRPPRLPRPRPRPCGHPRP, for which the “shrunken log2 fold change” value is -0.129.

Consider RRIRIRPPRLPRPRPRPWDWPRP, for which the “shrunken log2 fold change” value worked out at 0.0472.

With RRIRMRPPRLPRPRPRPHDNPRP, the “shrunken log2 fold change” value is 0.0232.

In the case of RRIRHRPPRLPRPRPRPMQYPRP, the “shrunken log2 fold change” value was -0.104.

As to RRIRWRPPRLPRPRPRPCDRPRP, the “shrunken log2 fold change” value was -0.0349.

As to RRIRPRPPRLPRPRPRPRMKPRP, the “shrunken log2 fold change” value is -0.285.

Regarding RRIRWRPPRLPRPRPRPSFDPRP, the “shrunken log2 fold change” value was found to be 0.0774.

Regarding RRIRERPPRLPRPRPRPQVPPRP, the “shrunken log2 fold change” value is -0.103.

For RRIRRRPPRLPRPRPRPFFCPRP, the “shrunken log2 fold change” value worked out at 0.167.

Regarding RRIRLRPPRLPRPRPRPLDLPRP, the “shrunken log2 fold change” value was -0.481.

These data come from the supplement of paper PMC9112550, “Optimization of the antimicrobial peptide Bac7 by deep mutational scanning” (BMC Biology, 2022).
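Further: peptides expressed intracellularly from a pBAD plasmid library in pooled LB shake-flask culture, induced with 0.3% L-arabinose, DNA abundance read by NGS, three biological replicates, DESeq2 with apeglm shrinkage.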
